Measured values: US20240116985A1 (published 2024)
Starred links: 1 amine or outer side, 2 acyl side, 3 side chain; linkers in the order of their positions; H or OH if unused. Positions of bridges follow the written chain, without caps; N, C: chain ends. Non-standard residues stand in square brackets, D forms with d. Primed or numbered codes have the meaning given here. B5(15) = 2-amino-2-(pent-4-en-1-yl)hept-6-enoic acid (2,2-bis(4-pentenyl)glycine), stitching residue bearing two staples, C=CCCCC(CCCC=C)(N[*:1])C(=O)[*:2]; Bta = N[C@@H](Cc1csc2ccccc12)C(=O)O; αAllylPro = C=CC[C@@]1(C(=O)O)CCCN1; S8 = C=CCCCCCC[C@](C)(N)C(=O)O; hSer = N[C@@H](CCO)C(=O)O

T1: full-length beta-Catenin (Uniprot ID P35222) (Homo sapiens (Human), UniProt P35222 2-781)
T1 construct: The assay protocols say only 'full-length'; No tag is stated, although the AlphaScreen kit is a Histidine (Nickel Chelate) kit; also called B-Catenin; bCat
T1 sequence: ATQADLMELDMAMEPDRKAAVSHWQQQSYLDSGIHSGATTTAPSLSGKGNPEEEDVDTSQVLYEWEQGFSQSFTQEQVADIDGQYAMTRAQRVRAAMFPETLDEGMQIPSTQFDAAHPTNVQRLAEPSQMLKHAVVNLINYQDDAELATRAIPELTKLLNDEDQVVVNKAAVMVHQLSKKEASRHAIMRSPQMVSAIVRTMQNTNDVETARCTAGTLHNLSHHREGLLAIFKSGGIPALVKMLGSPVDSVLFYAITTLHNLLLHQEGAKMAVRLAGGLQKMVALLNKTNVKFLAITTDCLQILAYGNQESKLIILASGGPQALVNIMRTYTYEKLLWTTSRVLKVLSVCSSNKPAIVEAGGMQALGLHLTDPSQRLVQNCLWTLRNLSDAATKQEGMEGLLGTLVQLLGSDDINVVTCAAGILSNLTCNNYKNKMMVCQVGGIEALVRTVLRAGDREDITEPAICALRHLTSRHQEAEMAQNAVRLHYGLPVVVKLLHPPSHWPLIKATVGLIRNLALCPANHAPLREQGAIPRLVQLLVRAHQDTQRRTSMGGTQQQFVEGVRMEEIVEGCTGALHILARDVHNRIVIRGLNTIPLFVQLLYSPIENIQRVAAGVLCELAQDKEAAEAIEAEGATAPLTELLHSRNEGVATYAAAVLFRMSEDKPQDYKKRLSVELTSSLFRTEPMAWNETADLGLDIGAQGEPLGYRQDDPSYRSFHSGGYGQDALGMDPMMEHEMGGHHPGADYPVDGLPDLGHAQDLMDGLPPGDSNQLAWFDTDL

T2: B-cat-Halo (beta-catenin HaloTag NanoBRET construct expressed in HEK293 cells) (UniProt P35222 1-781, HaloTag NanoBRET 618 Ligand bound to the HaloTag)
T2 sequence (looked up): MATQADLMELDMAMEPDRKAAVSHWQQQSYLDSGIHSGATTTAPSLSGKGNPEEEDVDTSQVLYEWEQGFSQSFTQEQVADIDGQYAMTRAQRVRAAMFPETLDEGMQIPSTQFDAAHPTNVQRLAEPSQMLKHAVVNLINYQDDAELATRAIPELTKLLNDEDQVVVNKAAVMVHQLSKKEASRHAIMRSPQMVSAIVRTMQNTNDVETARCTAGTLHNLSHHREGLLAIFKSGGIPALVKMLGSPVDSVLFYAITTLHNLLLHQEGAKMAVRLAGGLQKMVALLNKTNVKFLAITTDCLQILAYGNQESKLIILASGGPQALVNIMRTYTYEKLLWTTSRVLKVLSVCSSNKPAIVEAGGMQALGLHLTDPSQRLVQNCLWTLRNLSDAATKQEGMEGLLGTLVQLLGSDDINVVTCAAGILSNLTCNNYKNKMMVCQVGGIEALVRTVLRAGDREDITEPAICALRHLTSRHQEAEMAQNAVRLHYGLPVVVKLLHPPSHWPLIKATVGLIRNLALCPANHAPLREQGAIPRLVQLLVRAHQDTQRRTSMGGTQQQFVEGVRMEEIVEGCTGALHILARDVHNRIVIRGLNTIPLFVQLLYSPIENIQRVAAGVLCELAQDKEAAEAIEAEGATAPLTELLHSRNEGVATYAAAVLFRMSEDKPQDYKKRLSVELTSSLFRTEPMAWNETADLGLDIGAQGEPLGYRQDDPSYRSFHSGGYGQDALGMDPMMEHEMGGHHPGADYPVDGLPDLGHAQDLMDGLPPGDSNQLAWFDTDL

T3: full-length beta-Catenin (Uniprot ID P35222) (Homo sapiens (Human), UniProt P35222 1-781)
T3 construct: Any tags on the recombinant protein are not described for the FP assay; also called bCat; B-Catenin
T3 sequence: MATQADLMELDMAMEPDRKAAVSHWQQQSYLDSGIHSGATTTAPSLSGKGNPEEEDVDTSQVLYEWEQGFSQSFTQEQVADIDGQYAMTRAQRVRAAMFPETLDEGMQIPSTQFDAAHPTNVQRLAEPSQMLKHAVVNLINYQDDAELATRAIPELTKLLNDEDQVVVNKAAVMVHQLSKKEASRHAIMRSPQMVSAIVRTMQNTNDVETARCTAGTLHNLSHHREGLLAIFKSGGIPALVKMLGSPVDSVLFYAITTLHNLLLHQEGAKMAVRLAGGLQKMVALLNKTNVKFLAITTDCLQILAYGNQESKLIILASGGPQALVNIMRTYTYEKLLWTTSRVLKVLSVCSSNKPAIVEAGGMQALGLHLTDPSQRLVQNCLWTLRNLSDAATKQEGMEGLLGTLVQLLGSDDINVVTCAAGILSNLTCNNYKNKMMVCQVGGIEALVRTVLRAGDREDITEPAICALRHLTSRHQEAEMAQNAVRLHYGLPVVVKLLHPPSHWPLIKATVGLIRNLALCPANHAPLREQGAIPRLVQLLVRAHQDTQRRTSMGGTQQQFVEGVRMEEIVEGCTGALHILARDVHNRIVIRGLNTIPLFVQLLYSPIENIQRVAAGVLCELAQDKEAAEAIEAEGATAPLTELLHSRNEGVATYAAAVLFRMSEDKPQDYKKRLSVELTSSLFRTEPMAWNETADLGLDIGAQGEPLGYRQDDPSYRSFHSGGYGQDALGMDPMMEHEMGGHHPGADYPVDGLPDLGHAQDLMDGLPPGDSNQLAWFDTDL


What was measured:
[1] = biological target: T1, full-length beta-Catenin (Uniprot ID …); experiment: AlphaScreen competition; peptide titrated against full-length beta-catenin + biotin-TCF4(10-53)
Method: Equal volume of the titrated peptide was added to the plate and incubated for 15 minutes at 20° C. Then 4 uL of donor and 4 uL acceptor beads at 10 ug/mL were added to the plate, for a 16 uL reaction pool and protected from light for 60 minutes at 20° C. prior to read. Reads were performed on a CLARIOstar plate reader (BMG Labtech) in duplicate, and data were fitted to a 1:1 binding model with hill slope using an in-house script. All provided concentrations are final concentrations.

[2] = biological target: T1, full-length beta-Catenin (Uniprot ID …); experiment: fluorescence polarization competition; peptide titrated against full-length beta-catenin + 5FAM-TCF4(10-53) probe
Method: The plate was incubated protected from light for 60 minutes at 20° C. prior to read. Reads were performed on a CLARIOstar plate reader (BMG Labtech) in duplicate, and data were fitted to a 1:1 binding model with hill slope using an in-house script. All provided concentrations are final concentrations.

[3] = biological target: T2, B-cat-Halo (beta-catenin HaloTag …); experiment: cell-based or functional assay
[4] = biological target: T3, full-length beta-Catenin (Uniprot ID …); experiment: fluorescence polarization competition; displacement of 5FAM-TCF4(10-53) from full-length beta-catenin
In short: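 Fluorescence polarization was read in duplicate after the plate sat 60 minutes at 20° C. shielded from light. Values come from fitting to a 1:1 binding model with hill slope.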

Row | Binder | EC50 [1] [µM] | EC50 [2] [µM] | NanoBRET Abs IC50 [3] [µM] | IC50 [4] [µM]
1 | XDAXDDAAFVXAWQ (not fully specified; N-terminal Ac; C-terminal NH2; PL3 at 1, B5 at 4, S8 at 11 (stapled 1-4 and 4-11), Stapled peptide composition; Later-eluting isomer composition; also called Ac-PL3-Asp-Ala-B5-Asp-Asp-Ala-Ala-Phe-Val-S8-Ala-Trp-Gln-NH2) [I-356] | 8.2 | 5 |  | 
2 | Ac-[αAllylPro]DS[B5(15)]DEAAF[hSer][S8]F[Bta]Q-NH2 (staple 1-4, 4-11; not fully specified; printed as Ac-PL3-Asp-Ser-B5-Asp-Glu-Ala-Ala-Phe-Hse-S8-Phe-BztA-Gln-NH2, Stapled peptide composition) [I-1529: Ac-PL3-Asp-Ser-B5-Asp-Glu-Ala-Ala-Phe-Hse-S8-Phe-BztA-Gln-NH2] |  |  | > 20 | 0.126

More lines, now with the values ahead:

Row | EC50 [1] [µM] | EC50 [2] [µM] | NanoBRET Abs IC50 [3] [µM] | IC50 [4] [µM] | Binder
3 |  |  | 36.9 | 0.061 | Ac-[αAllylPro]DS[B5(15)]DEAAF[hSer][S8]F[Bta]Q-NH2 (staple 1-4, 4-11; not fully specified; printed as Ac-PL3-Asp-Ser-B5-Asp-Glu-Ala-Ala-Phe-Hse-S8-Phe-BztA-Gln-NH2, Stapled peptide composition; It has the same description as I-1529 and is the staple isomer composition of the later eluting HPLC peak) [I-1530: Ac-PL3-Asp-Ser-B5-Asp-Glu-Ala-Ala-Phe-Hse-S8-Phe-BztA-Gln-NH2]
4 |  |  | > 20 | 0.084 | XDNXDEAAFQXFXQ (not fully specified; N-terminal Ac; C-terminal NH2; PL3 at 1, B5 at 4 and S8 at 11 stapled by olefin metathesis (PL3-B5 and B5-S8); BztA at 13, Stapled peptide composition; It has the same description as I-1532 and is the staple isomer composition of the earlier eluting HPLC peak) [I-1531: Ac-PL3-Asp-Asn-B5-Asp-Glu-Ala-Ala-Phe-Gln-S8-Phe-BztA-Gln-NH2]
